Measurements taken from PMC10302166, “Molecular basis and dual ligand regulation of tetrameric estrogen receptor α/14-3-3ζ protein complex” (The Journal of Biological Chemistry, 2023).
Where no end group is shown, it is not given here. [ ]: non-standard residue; d: D form. pT = C[C@@H](OP(=O)(O)O)[C@H](N)C(=O)O

Columns and labels:
[1] = biological target: T1, ERα(PKA)-strep phosphopeptide (fluorescein-labeled, pT594, with C-terminal strep-tag) (human (from the printed UniProt entry)); experiment: fluorescence polarisation; fluorescence anisotropy; 14-3-3ζ titrated (2-fold series from 300 μM) to 2 nM fluorescein-labeled ERα peptide; 20 mM HEPES pH 7.5, 150 mM NaCl, 10 mM MgCl2, 0.1% Tween20, 0.1% BSA; room temperature; apparent
[2] = biological target: T1, ERα(PKA)-strep phosphopeptide (fluorescein-labeled, pT594, with C-terminal strep-tag) (human); experiment: fluorescence polarisation; as a13 in the presence of a 2-fold dilution series of 3′de-Ac FC-A (0.015–250 μM); cooperativity analysis of the ternary 14-3-3/peptide/FC-A complex
[3] = biological target: ERα(PKA) phosphopeptide (fluorescein-labeled C-terminal peptide mimic with F591R/P592R, pT594) (human (from the printed UniProt entry)); experiment: as above
[4] = biological target: fluorescein-labeled SRC-1 cofactor peptide (LXXLL motif of SRC-1/NCoA-1); experiment: fluorescence polarisation; as a10 but in the presence of 100 μM E2; apparent KD
[5] = biological target: fluorescein-labeled SRC-1 cofactor peptide (LXXLL motif of SRC-1/NCoA-1); experiment: fluorescence polarisation; fluorescence anisotropy; ERα or complex titrated (2-fold series from 40 μM ERα) to 20 nM fluorescein-labeled SRC1 peptide; DMSO control; 20 mM HEPES pH 7.5, 150 mM NaCl, 10 mM MgCl2, 0.1% Tween20, 0.1% BSA; room temperature; apparent KD (4PL fit)
[6] = biological target: ERα LBD-F domain, PKA-responsive (F591R/P592R), phosphorylated at T594, as in the co-purified ERα/14-3-3ζ complex after SUMO cleavage (human (from the printed UniProt entry)) (UniProt P03372); experiment: AUC; sedimentation velocity, 20 °C, 20 mM HEPES pH 7.5, 150 mM NaCl, 10 mM MgCl2, 0.5 mM TCEP; 10 μM single proteins, 10 or 30 μM complex; complex also with added 14-3-3ζ (up to six equivalents) or 20 μM E2 or 4-OHT; KD estimated from peak areas (KD = [A][B]/[AB]), dimer to dimer
14-3-3ζ-strep [7] = biological target: T2, 14-3-3ζ-strep (human, UniProt P63104 1-245); experiment: as above
T2 chain: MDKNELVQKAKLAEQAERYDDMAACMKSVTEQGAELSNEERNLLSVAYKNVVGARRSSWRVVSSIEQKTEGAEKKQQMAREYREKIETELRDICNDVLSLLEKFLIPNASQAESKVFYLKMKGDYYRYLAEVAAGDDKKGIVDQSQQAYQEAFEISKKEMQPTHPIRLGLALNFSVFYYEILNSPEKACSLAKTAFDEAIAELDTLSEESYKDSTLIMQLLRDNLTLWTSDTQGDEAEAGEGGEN

14-3-3ζ-strep [8] = biological target: T2, 14-3-3ζ-strep; experiment: quantitative LC-QToF-MS of the purified complex; concentrations of 14-3-3ζ and ERα in dilutions of the purified complex read from calibration series of 14-3-3ζ-strep and ERα-pT594-strep
14-3-3ζ-strep [9] = biological target: T2, 14-3-3ζ-strep; experiment: FP
[10] = biological target: T3, 14-3-3ζ-strep (human), P63104; experiment: SEC; analytical SEC, Superdex200 increase 3.2/300, 20 mM Tris pH 7.5, 150 mM NaCl, 10 mM MgCl2, 0.5 mM TCEP; 10 μM 14-3-3ζ, 10 μM ERα-strep, 20 μM complex; BSA as size reference; details: remark: other sources report otherwise
T3 chain: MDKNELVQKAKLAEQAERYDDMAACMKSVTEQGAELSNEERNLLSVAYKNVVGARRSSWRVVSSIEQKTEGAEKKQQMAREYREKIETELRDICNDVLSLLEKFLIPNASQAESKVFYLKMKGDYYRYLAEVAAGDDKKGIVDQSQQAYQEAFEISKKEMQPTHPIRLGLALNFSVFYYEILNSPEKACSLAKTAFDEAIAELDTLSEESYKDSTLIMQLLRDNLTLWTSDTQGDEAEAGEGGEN

[11] = biological target: T3, 14-3-3ζ-strep (human), P63104; experiment: AUC; sedimentation velocity, 20 °C, 20 mM HEPES pH 7.5, 150 mM NaCl, 10 mM MgCl2, 0.5 mM TCEP; 10 μM single proteins, 10 or 30 μM complex; complex also with added 14-3-3ζ (up to six equivalents) or 20 μM E2 or 4-OHT; KD estimated from peak areas (KD = [A][B]/[AB]), dimer to dimer; details: remark: other sources report otherwise
14-3-3ζ-strep [12] = biological target: T2, 14-3-3ζ-strep; experiment: FP
[13] = biological target: the molecule itself; experiment: SEC; analytical SEC, Superdex200 increase 3.2/300, 20 mM Tris pH 7.5, 150 mM NaCl, 10 mM MgCl2, 0.5 mM TCEP; 10 μM 14-3-3ζ, 10 μM ERα-strep, 20 μM complex; BSA as size reference

14-3-3ζ-strep (from UniProt P63104 1-245) (natural protein)
fold reduction in binding affinity against the ERα peptide without strep-tag [1]: 50 fold
cooperativity factor (α) of FC-A stabilisation [2]: 15
cooperativity factor (α) of FC-A stabilisation [3]: 366

ERα/14-3-3ζ protein complex (tetramer of an ERα homodimer and a 14-3-3ζ homodimer) (from UniProt P03372 302-595; P63104 1-245)
Kd [4]: 600 nM
Kd [5]: 9600 nM

ERα LBD-F domain, PKA-responsive (F591R/P592R), phosphorylated at T594, as in the co-purified ERα/14-3-3ζ complex after SUMO cleavage (from UniProt P03372 302-595) (domain or fragment)
stoichiometry N [6]: 2
Kd (14-3-3ζ-strep [7]): 32 nM
stoichiometry N (ERα:14-3-3ζ (2:2)) (14-3-3ζ-strep [7]): 1
stoichiometry N (14-3-3ζ-strep [8]): 1 ERα:14-3-3ζ

AEGFPA[pT]V (also: fluorescein label, position not given here) [WT ERα phosphopeptide (fluorescein-labeled C-terminal peptide mimic, pT594)]
Kd (14-3-3ζ-strep [9]): 2200 nM

B1: 14-3-3ζ-strep, P63104 1-245 (natural protein)
chain: MDKNELVQKAKLAEQAERYDDMAACMKSVTEQGAELSNEERNLLSVAYKNVVGARRSSWRVVSSIEQKTEGAEKKQQMAREYREKIETELRDICNDVLSLLEKFLIPNASQAESKVFYLKMKGDYYRYLAEVAAGDDKKGIVDQSQQAYQEAFEISKKEMQPTHPIRLGLALNFSVFYYEILNSPEKACSLAKTAFDEAIAELDTLSEESYKDSTLIMQLLRDNLTLWTSDTQGDEAEAGEGGEN
stoichiometry N [10]: 2
stoichiometry N [11]: 2

AEGRRA[pT]V (also: fluorescein label, position not given here) [ERα(PKA) phosphopeptide (fluorescein-labeled C-terminal peptide mimic with F591R/P592R, pT594)]
Kd (14-3-3ζ-strep [9]): 300 nM

AEGRRA[pT]VPWSHPQFEK (also: fluorescein label, position not given here) [ERα(PKA)-strep phosphopeptide (fluorescein-labeled, pT594, with C-terminal strep-tag)]
Kd (14-3-3ζ-strep [12]): 14000 nM

B2: ERαLBD-F-strep (PKA-responsive, non-phosphorylated) (domain or fragment, human (from the printed UniProt entry), UniProt P03372 302-595, looked up)
chain: KKNALALSLTADQMVSALLDAEPPILYSEYDPTRPFSEASMMGLLTNLADRELVHMINWAKRVPGFVDLTLHDQVHLLECAWLEILMIGLVWRSMEHPGKLLFAPNLLLDRNQGKCVEGMVEIFDMLLATSSRFRMMNLQGEEFVCLKSIILLNSGVYTFLSSTLKSLEEKDHIHRVLDKITDTLIHLMAKAGLTLQQQHQRLAQLLLILSHIRHMSNKGMEHLYSMKCKNVVPLYDLLLEMLDAHRLHAPTSRGGASVEETDQSHLATAGSTSSHSLQKYYITGEAEGRRATV
notes: also called ERα-strep; ERα(PKA)-strep; source: E. coli NiCo21 (DE3), purified (Ni-NTA, SUMO cleavage, Strep-Tactin, SEC); not shown: His tag, N-terminal, cleaved; SUMO, N-terminal, cleaved; strep-tag, C-terminal, kept
stoichiometry N [13]: 2
